The series deals with F1*sub RNA substrate (template-directed ligation). The experiment in a line: fraction ligated after 30 min (ligated reads / total reads); higher = more ligase activity; sequences stand for … in GAGACCGCAACTGAAAAGTTGT…AGTTCTGCACGTAGAAGCAAAAGGC
The settings on record: 42 °C. Summed up:
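Ribozyme variants were transcribed with T7 from PCR-amplified oligo-pool templates and gel-purified. Ligated and unligated bands, separated on gel, were reverse transcribed with barcoded primers and sequenced on a MiSeq, with core bases filtered at quality ≥20. Fraction ligated per variant was computed as ligated reads divided by total reads.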
TTCACTTGTCGTAAGACATTTGGATGGTTGA [3d481] registered a fraction ligated of 0.25.
In turn, “TATCACTTGTCTAAGAACTTTGGATGGGTTG [3d1863]” gave a fraction ligated of 0.782.
Sequence “TATCACTTGTCTAAGACCTTTGGATGGTTGA [3d1868]” returned a fraction ligated of 0.269.
Regarding “TATCACTGTCGAAGAACTTTGGATGGGTTGA [3d1375]”, the fraction ligated is 0.846.
For the sequence “TATCACGTCGTAAGACATTTGGATGGGTTGA [3d1303]”, the fraction ligated came to 0.807.
The same measure for TACACTTGTCGTAAACACTTTGGATGGGTTG [3d681]: 0.0503; for “TATCACTTGTCGAAGACACTTGGAGGGTTGA [3d1960]”: 0.0758; for TATACTTGTCGTAGACACTTGGATGGGTTGA [3d876]: 0.61.
“TATCACTTGTCGTAAACATTTGGATGGGTTG [3d2080]”: the fraction ligated amounted to 0.826.
Turning to TACACTTGTCGTAAGACACTTTGGATGGTTGA [2d66], the fraction ligated was found to be 0.644.
Then TACACTTGTCTAAGACACTTGGATGGGTTGA [3d639], with 0.087; and TACATTGTCGTAAGACCTTTGGATGGGTTGA [3d557], with 0.214.
Consider “TATCACTTTCGAAGACACTTTGGATGGGTTGA [2d149]”, for which the fraction ligated is 0.797.
“TATCCTTGTCGTAAGCACTTTGGATGGGTTG [3d1074]” had a fraction ligated of 0.768.
In the case of TATATTGTCGAAGACACTTTGGATGGGTTGA [3d763], the fraction ligated worked out at 0.376.
ATCATTGTCGTAAGACACTTTGATGGGTTGA [3d99] registered a fraction ligated of 0.664.
“TATCACTTGTCGAAGCACTTTGGATGGGTTG [3d1934]” returned a fraction ligated of 0.783.
The same measure for “TATCCTTGTCGTAGACACTTTGGATGGTTGA [3d1052]”: 0.0426.
For the sequence “TATCATTGTGTAGACACTTTGGATGGGTTGA [3d1174]”, the fraction ligated came to 0.856.
The same measure for “TATCACTTTCGAGACACTTTGGATGGGTTGA [3d1493]”: 0.79.
TACCTTGTGTAAGACACTTTGGATGGGTTGA [3d531] had a fraction ligated of 0.795.
As to “TATCATTGTCTAAACACTTTGGATGGGTTGA [3d1189]”, the fraction ligated was 0.785.
With ATCACTTGTCGTAAGACCTTTGGTGGGTTGA [3d241], the fraction ligated amounted to 0.0169.
“TATCATTGTCTAAGACCTTTGGATGGGTTGA [3d1192]” had a fraction ligated of 0.758.
As for TACACTTGTCGTAGACACTTTGGTGGGTTGA [3d667], the fraction ligated was 0.0835.
For the sequence “TATCACTTGTGTAAGACCTTTGATGGGTTGA [3d1773]”, the fraction ligated amounted to 0.819.
Then “TATCACTGTCGTAGAACTTTGGATGGGTTGA [3d1388]”, with 0.886.
TATCCTTGCGTAAACACTTTGGATGGGTTGA [3d988] yielded a fraction ligated of 0.807.
Consider “TATCCTTGTCGAAGACACTTTGGAGGGTTGA [3d1038]”, for which the fraction ligated is 0.016.
The same measure for ACACTTGTCGTAAGACACTTGGATGGGTTGA [3d39]: 0.157.
With “TATCACTTGTCGTAGACACTTGGAGGGTTGA [3d2038]”, the fraction ligated is 0.0635.
“ATCACTTGTCGTAAGACACTTTGGATGTGGTTGA [s38]”: the fraction ligated stood at 0.693.
The sequence “TATCACTTTCGTAGACACTTTGATGGGTTGA [3d1513]” registered a fraction ligated of 0.783.
With “TATCACTTGCGTAAGACCTTTGGTGGGTTGA [3d1669]”, the fraction ligated is 0.137.
“TATCACTTGTCAAGACACTTTGGAGGGTTGA [3d1819]” gave a fraction ligated of 0.138.
For “TATCACTGTGTAAGACCTTTGGATGGGTTGA [3d1349]”, the fraction ligated is 0.889.
Sequence ATCACTTGTCGTAAACACTTTGGAGGGTTGA [3d217] yielded a fraction ligated of 0.0797.
Then TACATTGTCGTAAACACTTTGGATGGGTTGA [3d554], with 0.0244; and TTCCTTGTCGAAGACACTTTGGATGGGTTGA [3d303], with 0.796.
In the case of TATCCTTTCGTAAGACCTTTGGATGGGTTGA [3d975], the fraction ligated was 0.771.
In the case of “TATCACTTCGAAGACACTTTGGATGGGTTGA [3d1313]”, the fraction ligated was 0.803.
Then “TATCACTTGTCTAAGACACTTTGTGGGTTGA [3d1886]”, with 0.044; and “TATCACTTGTCGTAAGCACTTTGGATGGGTTG [2d253]”, with 0.771; and “TATCACTTGCGTAAGACACTTGGTGGGTTGA [3d1683]”, with 0.139.
Sequence “TATCATTGTGTAAACACTTTGGATGGGTTGA [3d1175]” came in with a fraction ligated of 0.82.
As to TACACTTGTGTAAGACCTTTGGATGGGTTGA [3d623], the fraction ligated amounted to 0.0441.
Then ATCACTTGTCGTAAGACACTTTGGTGGTTGA [3d267], with 0.0134; and TTCACTTGTCTAAGACACTTTGGATGGTTGA [3d413], with 0.661; and TACATTGTCGTAGACACTTTGGATGGGTTGA [3d553], with 0.0879.
Turning to ATCACTTGCGTAAGACACTTTGGAGGGTTGA [3d152], the fraction ligated worked out at 0.061.
Sequence TTCCTTGTCGTAAGACACTTTGGATGGTTGA [3d314] returned a fraction ligated of 0.175.
Sequence TATCCTTGCGTAAGACACTTTGGAGGGTTGA [3d996] showed a fraction ligated of 0.0215.
For “TATCACTTGTGTAGACACTTGGATGGGTTGA [3d1737]”, the fraction ligated turned out to be 0.826.
Turning to “TATCATTGTCGTAGACACTTTGGTGGGTTGA [3d1222]”, the fraction ligated is 0.356.
Sequence “TATCACTTGTGTAAGACCTTTGGAGGGTTGA [3d1775]” gave a fraction ligated of 0.137.
The sequence “TATCACTTGTCGTAAGACACTTTGGAGGGTTA [2d294]” gave a fraction ligated of 0.0266.
TATACTTGCGTAAGAACTTTGGATGGGTTGA [3d818]: the fraction ligated was 0.768.
As for “TATCACTTGTCTAAACACTTGGATGGGTTGA [3d1839]”, the fraction ligated amounted to 0.776.
For ATCACTTTCGTAAACACTTTGGATGGGTTGA [3d128], the fraction ligated stood at 0.779.
In turn, “TATCCTTGTCGTGACACTTTGGATGGGTTGA [3d1042]” came in with a fraction ligated of 0.798.
As to “TATCATTGTCTAAGACACTTTGGAGGGTTGA [3d1197]”, the fraction ligated stood at 0.0716.
Turning to “TATCACTTGTCGTAGACACTTTGGATGGTTG [3d2056]”, the fraction ligated came to 0.452.
“TATCACTTGTGTAAGAACTTTGGTGGGTTGA [3d1767]” registered a fraction ligated of 0.0854.
The sequence “TATCACTTGTGTAAGACACTTTGATGGTTGA [3d1796]” had a fraction ligated of 0.0289.
The sequence TATATTGTCGTAAGACATTTGGATGGGTTGA [3d769] showed a fraction ligated of 0.632.
TTCACTTGTCGTAAGAACTTTGGATGGGTTG [3d469]: the fraction ligated is 0.533.
Turning to “TATCACTTGTCGAAGCACTTGGATGGGTTGA [3d1928]”, the fraction ligated was found to be 0.747.
The same measure for “TATCACTTGTGTAAGACACTTTGGATGGGTT [3d1808]”: 0.615.
Regarding “TATCACTTGTCGTAAGACCTTTGGAGGTTGA [3d2200]”, the fraction ligated came out at 0.049.
“TATCACTGTCGTAAGAACTTGGATGGGTTGA [3d1419]” came in with a fraction ligated of 0.847.
Then TACACTTGTGTAAGACACTTTGGATGGGTTA [3d630], with 0.0333; and “TATCACGTCGTAAGACACTTTGGATGGGTTG [3d1310]”, with 0.782.
On to “TATCACTTGTCGTAAGACACTTGGGGGTTGA [3d2244]”, for which the fraction ligated was found to be 0.0227.
The sequence “TATCACTTGTCGTAGACACTTTATGGGTTGA [3d2042]” came in with a fraction ligated of 0.128.
As for “TATCACTTTGTAAGACCTTTGGATGGGTTGA [3d1470]”, the fraction ligated was found to be 0.769.
In the case of TATACTTGTCGTAAGACCTTTGGATGGGTTGA [2d81], the fraction ligated turned out to be 0.746.
With “TATCACTTGTCGTAGACACTTTGGAGGTTGA [3d2052]”, the fraction ligated is 0.072.
As for TATACTTGTCGTAAGACACTTTATGGGTTGA [3d932], the fraction ligated was found to be 0.0481.
“TATCACTTGTCGAAGACATTTGGATGGGTTG [3d1956]” displayed a fraction ligated of 0.801.
“TATCCTTGTCGTAAACACTTGGATGGGTTGA [3d1058]” registered a fraction ligated of 0.721.
TACCTTTCGTAAGACACTTTGGATGGGTTGA [3d529] showed a fraction ligated of 0.435.
In the case of “TATCCTTGTCGAAGACACTTTGGATGGTTGA [3d1039]”, the fraction ligated was 0.0395.
Then TATACTTGCGTAAGACACTTTGGTGGGTTGA [3d823], with 0.014.
TATACTTTCGTAAGACACTTTGGATGGGTTGA [2d72] yielded a fraction ligated of 0.542.
As for “TATCACTGTGTAAGACACTTTGGATGGGTTGA [2d131]”, the fraction ligated turned out to be 0.887.
Then “TATCACTTGCGTGACACTTTGGATGGGTTGA [3d1626]”, with 0.829; and TTCACTTGTCGTAGACACTTTGGTGGGTTGA [3d437], with 0.0435.
Sequence “TATCACTTGTCGTAAGACCTTTGGTGGGTTGA [2d264]” displayed a fraction ligated of 0.114.
“TATCACTTGTCGTAGCACTTTGGATGGTTGA [3d2010]” yielded a fraction ligated of 0.171.
For “TATCACTTGTCGTAAACACTGGATGGGTTGA [3d2081]”, the fraction ligated was 0.787.
The same measure for TATACTTGTCGTAGACACTTTGGAGGGTTGA [3d879]: 0.0209.
ATCACTGTCGTAAGACACTTTGATGGGTTGA [3d118]: the fraction ligated came out at 0.685.
As for ATCACTTGGTAAGACACTTTGGATGGGTTGA [3d140], the fraction ligated stood at 0.735.
The sequence TATACTTGTGTAAGACACTTTGGAGGGTTGA [3d839] gave a fraction ligated of 0.0723.
For the sequence TACACTTGTCGTAAGAACTTTGGATGGGTTGA [2d59], the fraction ligated came to 0.0167.
In the case of TTCACTTGTCGTAAGACACTTTGGATGGGTT [3d506], the fraction ligated was found to be 0.0428.
On to “TATCCTTGTCGTAAGAACTTTGGTGGGTTGA [3d1078]”, for which the fraction ligated was determined as 0.0718.

Source of the values: the supplement of paper PMC6755084.
